Assays:
mouse PD-1 [1] = target: T1, mouse PD-1 (mouse, UniProt Q02242 25-167, limits assumed); experiment: Kd column of Table 22; same value as PD-L1(mut2)-Fc in Table 20
T1 construct: also called mPD-1
T1 sequence (looked up): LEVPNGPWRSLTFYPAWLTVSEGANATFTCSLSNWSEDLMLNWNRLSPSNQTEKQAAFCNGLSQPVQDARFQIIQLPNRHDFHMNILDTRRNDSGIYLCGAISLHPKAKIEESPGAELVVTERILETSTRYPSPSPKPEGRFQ

human PD-1 [2] = target: T2, human PD-1 (human, UniProt Q15116 25-167, limits assumed); experiment: method not named
T2 construct: nivolumab is called an anti-human PD-1 antibody; also called hPD-1

mouse PD-1 [3] = target: T1, mouse PD-1; experiment: method not named
[4] = target: human IL-12 receptor complex (human, UniProt P42701 24-662; Q99665 24-862); experiment: cell-based or functional assay
[5] = target: human PD-1 overexpressed on HEK-Blue reporter cells (human, UniProt Q15116 25-288); experiment: cell-based or functional assay
human PD-1 [6] = target: T2, human PD-1; experiment: affinity in PD-L1-Fc format; N/A indicates non-detectable PD-1 binding
mouse PD-1 [7] = target: T1, mouse PD-1; experiment: as above
mouse PD-1 [8] = target: T1, mouse PD-1; experiment: Kd column of Table 22; same value as PD-L2(WT)-Fc in Table 21
mouse PD-1 [9] = target: T1, mouse PD-1; experiment: Kd column of Table 22; same value as PD-L2(mut2)-Fc in Table 21

T2 sequence (Q15116 25-167 limits assumed): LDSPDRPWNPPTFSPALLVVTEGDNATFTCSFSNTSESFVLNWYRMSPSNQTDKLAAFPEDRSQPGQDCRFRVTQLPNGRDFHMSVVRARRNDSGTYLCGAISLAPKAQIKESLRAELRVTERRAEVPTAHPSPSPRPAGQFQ
Sequence of human PD-1 overexpressed on HEK-Blue reporter cells (Q15116 25-288): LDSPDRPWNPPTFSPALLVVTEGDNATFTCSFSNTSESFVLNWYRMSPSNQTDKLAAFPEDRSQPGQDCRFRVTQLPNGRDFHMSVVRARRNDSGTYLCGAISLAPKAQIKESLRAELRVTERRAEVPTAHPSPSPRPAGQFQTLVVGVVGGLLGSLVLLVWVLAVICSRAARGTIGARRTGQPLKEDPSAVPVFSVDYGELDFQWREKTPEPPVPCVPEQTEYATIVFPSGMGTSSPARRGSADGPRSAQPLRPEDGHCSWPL
Sequence of human IL-12 receptor complex (Q99665 24-862, chain 2 of 2, other chains not shown): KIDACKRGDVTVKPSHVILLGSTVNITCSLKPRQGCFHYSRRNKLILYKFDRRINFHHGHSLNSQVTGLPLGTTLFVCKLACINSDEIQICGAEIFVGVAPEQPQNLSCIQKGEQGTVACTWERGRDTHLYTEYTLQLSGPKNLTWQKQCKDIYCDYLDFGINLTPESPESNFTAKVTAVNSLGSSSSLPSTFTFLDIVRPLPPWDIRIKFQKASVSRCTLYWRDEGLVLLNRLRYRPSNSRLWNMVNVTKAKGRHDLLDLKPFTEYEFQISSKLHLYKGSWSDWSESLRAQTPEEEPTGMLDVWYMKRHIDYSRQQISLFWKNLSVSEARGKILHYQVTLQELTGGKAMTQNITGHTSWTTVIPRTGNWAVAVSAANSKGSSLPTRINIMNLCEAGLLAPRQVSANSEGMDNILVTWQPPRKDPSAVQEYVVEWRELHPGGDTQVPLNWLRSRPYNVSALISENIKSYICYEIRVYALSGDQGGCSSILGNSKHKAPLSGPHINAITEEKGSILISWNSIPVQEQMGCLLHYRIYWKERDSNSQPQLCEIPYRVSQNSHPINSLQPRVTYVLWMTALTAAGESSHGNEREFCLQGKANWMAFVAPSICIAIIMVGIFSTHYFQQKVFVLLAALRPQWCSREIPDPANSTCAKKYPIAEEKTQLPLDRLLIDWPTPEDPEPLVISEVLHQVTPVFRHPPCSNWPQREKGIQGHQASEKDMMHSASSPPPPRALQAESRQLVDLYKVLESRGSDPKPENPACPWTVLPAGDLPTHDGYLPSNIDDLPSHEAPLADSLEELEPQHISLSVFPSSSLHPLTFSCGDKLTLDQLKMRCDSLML

B1: IL-12(E59A/F60A)/PD-L1(mut2)-Fc (Fc fusion)
chain 1: FTVTVPKDLYVVEYGSNMTIECKFPVEKQLDLAALQVYWMMEDKNIIQFVHGEEDLKVQHSSYRQRARLLKDQLSLGNAALQITDVKLQDAGVYTCLIAYKGADYKRITVKVNAPYNKINQRILVVDPVTSEHELTCQAEGYPKAEVIWTSSDHQVLSGKTTTTNSKREEKLFNVTSTLRINTTTNEIFYCTFRRLDPEENHTAELVIPELPLAHPPNERGGGGSGGGIWELKKDVYVVELDWYPDAPGEMVVLTCDTPEEDGITWTLDQSSEVLGSGKTLTIQVKAAGDAGQYTCHKGGEVLSHSLLLLHKKEDGIWSTDILKDQKEPKNKTFLRCEAKNYSGRFTCWWLTTISTDLTFSVKSSRGSSDPQGVTCGAATLSAERVRGDNKEYEYSVECQEDSACPAAEESLPIEVMVDAVHKLKYENYTSSFFIRDIIKPDPPKNLQLKPLKNSRQVEVSWEYPDTWSTPHSYFSLTFCVQVQGKSKREKKDRVFTDKTSATVICRKNASISVRAQDRYYSSSWSEWASVPCSGGGGSGGGSGGGGSRNLPVATPDPGMFPCLHHSQNLLRAVSNMLQKARQTLEFYPCTSEEIDHEDITKDKTSTVEACLPLELTKNESCLNSRETSFITNGSCLASRKTSFMMALCLSSIYEDLKMYQVEFKTMNAKLLMDPKRQIFLDQNMLAVIDELMQALNFNSETVPQKSSLEEPDFYKTKIKLCILLHAFRIRAVTIDRVMSYLNASGGGGSGGGDKTHTCPPCPAPEDEGGPSVFLFPPKPKDTLMISRTPEVTCVVVDVSHEDPEVKFNWYVDGVEVHNAKTKPREEQYNSTYRVVSVLTVLHQDWLNGKEYKCKVSNKALPAPIEKTISKAKGQPREPQVYVYPPSREEMTKNQVSLTCLVKGFYPSDIAVEWESNGQPENNYKTTPPVLDEDGSFALVSKLTVDKSRWQQGNVFSCSVMHEALHNHYTQKSLSLSPGK
chain 2: FTVTVPKDLYVVEYGSNMTIECKFPVEKQLDLAALQVYWMMEDKNIIQFVHGEEDLKVQHSSYRQRARLLKDQLSLGNAALQITDVKLQDAGVYTCLIAYKGADYKRITVKVNAPYNKINQRILVVDPVTSEHELTCQAEGYPKAEVIWTSSDHQVLSGKTTTTNSKREEKLFNVTSTLRINTTTNEIFYCTFRRLDPEENHTAELVIPELPLAHPPNERGGGGSGGGDKTHTCPPCPAPEKKGGPSVFLFPPKPKDTLMISRTPEVTCVVVDVSHEDPEVKFNWYVDGVEVHNAKTKPREEQYNSTYRVVSVLTVLHQDWLNGKEYKCKVSNKALPAPIEKTISKAKGQPREPQVYVLPPSREEMTKNQVSLLCLVKGFYPSDIAVEWESNGQPENRYMTWPPVLDSDGSFFLYSKLTVDKSRWQQGNVFSCSVMHEALHNHYTQKSLSLSPGK
notes: also called IL-12(E59A/F60A)/PD-L1(I54Q/E58M/R113T/M115L/S117A/G119K)-Fc
Kd (mouse PD-1 [1]): 120 nM
Kd (human PD-1 [2]): ~100 nM
Kd (mouse PD-1 [3]): ~100 nM
IL-12 signal transduction, % of rIL-12, HEK-IL-12 cells [4]: < 0.2%
IL-12 signal transduction, % of rIL-12, HEK-IL-12-PD-1 cells [5]: 24%

B2: PD-L1(mut1)-Fc (Fc fusion)
chain 1: FTVTVPKDLYVVEYGSNMTIECKFPVEKQLDLAALIVYWMMEDKNIIQFVHGEEDLKVQHSSYRQRARLLKDQLSLGNAALQITDVKLQDAGVYTCLIAYKGADYKRITVKVNAPYNKINQRILVVDPVTSEHELTCQAEGYPKAEVIWTSSDHQVLSGKTTTTNSKREEKLFNVTSTLRINTTTNEIFYCTFRRLDPEENHTAELVIPELPLAHPPNERDKTHTCPPCPAPEDEGGPSVFLFPPKPKDTLMISRTPEVTCVVVDVSHEDPEVKFNWYVDGVEVHNAKTKPREEQYNSTYRVVSVLTVLHQDWLNGKEYKCKVSNKALPAPIEKTISKAKGQPREPQVYVYPPSREEMTKNQVSLTCLVKGFYPSDIAVEWESNGQPENNYKTTPPVLDEDGSFALVSKLTVDKSRWQQGNVFSCSVMHEALHNHYTQKSLSLSPGK
chain 2: FTVTVPKDLYVVEYGSNMTIECKFPVEKQLDLAALIVYWMMEDKNIIQFVHGEEDLKVQHSSYRQRARLLKDQLSLGNAALQITDVKLQDAGVYTCLIAYKGADYKRITVKVNAPYNKINQRILVVDPVTSEHELTCQAEGYPKAEVIWTSSDHQVLSGKTTTTNSKREEKLFNVTSTLRINTTTNEIFYCTFRRLDPEENHTAELVIPELPLAHPPNERDKTHTCPPCPAPEKKGGPSVFLFPPKPKDTLMISRTPEVTCVVVDVSHEDPEVKFNWYVDGVEVHNAKTKPREEQYNSTYRVVSVLTVLHQDWLNGKEYKCKVSNKALPAPIEKTISKAKGQPREPQVYVLPPSREEMTKNQVSLLCLVKGFYPSDIAVEWESNGQPENRYMTWPPVLDSDGSFFLYSKLTVDKSRWQQGNVFSCSVMHEALHNHYTQKSLSLSPGK
notes: also called E58M/R113T/M115L/S117A/G119K
binding result (human PD-1 [6]): no binding
binding result (mouse PD-1 [7]): no binding

B3: IL-12(E59A/F60A)/PD-L2(WT)-Fc (Fc fusion)
chain 1: LFTVTVPKELYIIEHGSNVTLECNFDTGSHVNLGAITASLQKVENDTSPHRERATLLEEQLPLGKASFHIPQVQVRDEGQYQCIIIYGVAWDYKYLTLKVKASYRKINTHILKVPETDEVELTCQATGYPLAEVSWPNVSVPANTSHSRTPEGLYQVTSVLRLKPPPGRNFSCVFWNTHVRELTLASIDLQSQMEPRTHPTGSGIWELKKDVYVVELDWYPDAPGEMVVLTCDTPEEDGITWTLDQSSEVLGSGKTLTIQVKAAGDAGQYTCHKGGEVLSHSLLLLHKKEDGIWSTDILKDQKEPKNKTFLRCEAKNYSGRFTCWWLTTISTDLTFSVKSSRGSSDPQGVTCGAATLSAERVRGDNKEYEYSVECQEDSACPAAEESLPIEVMVDAVHKLKYENYTSSFFIRDIIKPDPPKNLQLKPLKNSRQVEVSWEYPDTWSTPHSYFSLTFCVQVQGKSKREKKDRVFTDKTSATVICRKNASISVRAQDRYYSSSWSEWASVPCSGGGGSGGGGSGGGGSGGGGSGRNLPVATPDPGMFPCLHHSQNLLRAVSNMLQKARQTLEFYPCTSEEIDHEDITKDKTSTVEACLPLELTKNESCLNSRETSFITNGSCLASRKTSFMMALCLSSIYEDLKMYQVEFKTMNAKLLMDPKRQIFLDQNMLAVIDELMQALNFNSETVPQKSSLEEPDFYKTKIKLCILLHAFRIRAVTIDRVMSYLNASDKTHTCPPCPAPEDEGGPSVFLFPPKPKDTLMISRTPEVTCVVVDVSHEDPEVKFNWYVDGVEVHNAKTKPREEQYNSTYRVVSVLTVLHQDWLNGKEYKCKVSNKALPAPIEKTISKAKGQPREPQVYVYPPSREEMTKNQVSLTCLVKGFYPSDIAVEWESNGQPENNYKTTPPVLDEDGSFALVSKLTVDKSRWQQGNVFSCSVMHEALHNHYTQKSLSLSPGK
chain 2: LFTVTVPKELYIIEHGSNVTLECNFDTGSHVNLGAITASLQKVENDTSPHRERATLLEEQLPLGKASFHIPQVQVRDEGQYQCIIIYGVAWDYKYLTLKVKASYRKINTHILKVPETDEVELTCQATGYPLAEVSWPNVSVPANTSHSRTPEGLYQVTSVLRLKPPPGRNFSCVFWNTHVRELTLASIDLQSQMEPRTHPTGSGDKTHTCPPCPAPEKKGGPSVFLFPPKPKDTLMISRTPEVTCVVVDVSHEDPEVKFNWYVDGVEVHNAKTKPREEQYNSTYRVVSVLTVLHQDWLNGKEYKCKVSNKALPAPIEKTISKAKGQPREPQVYVLPPSREEMTKNQVSLLCLVKGFYPSDIAVEWESNGQPENRYMTWPPVLDSDGSFFLYSKLTVDKSRWQQGNVFSCSVMHEALHNHYTQKSLSLSPGK
notes: also called IL-12(E59A/F60A)/PD-L2-Fc immunocytokine; construct #29
Kd (mouse PD-1 [8]): 980 nM

B4: IL-12(E59A/F60A)/PD-L2(mut2)-Fc (Fc fusion)
chain 1: LFTVTVPKELYIIEHGSNVTLECNFDTGSHVNLGAITAVLQKVENDTSPHRERATLLEEQLPLGKASFHIPQVQVRDEGQYQCIIIYGVAWDYKYLTLKVKASYRKINTHILKVPETDEVELTCQATGYPLAEVSWPNVSVPANTSHSRTPEGLYQVTSVLRLKPPPGRNFSCVFWNTHVRELTLASIDLQSQMEPRTHPTGGGGSGGGIWELKKDVYVVELDWYPDAPGEMVVLTCDTPEEDGITWTLDQSSEVLGSGKTLTIQVKAAGDAGQYTCHKGGEVLSHSLLLLHKKEDGIWSTDILKDQKEPKNKTFLRCEAKNYSGRFTCWWLTTISTDLTFSVKSSRGSSDPQGVTCGAATLSAERVRGDNKEYEYSVECQEDSACPAAEESLPIEVMVDAVHKLKYENYTSSFFIRDIIKPDPPKNLQLKPLKNSRQVEVSWEYPDTWSTPHSYFSLTFCVQVQGKSKREKKDRVFTDKTSATVICRKNASISVRAQDRYYSSSWSEWASVPCSGGGGSGGGSGGGGSRNLPVATPDPGMFPCLHHSQNLLRAVSNMLQKARQTLEFYPCTSEEIDHEDITKDKTSTVEACLPLELTKNESCLNSRETSFITNGSCLASRKTSFMMALCLSSIYEDLKMYQVEFKTMNAKLLMDPKRQIFLDQNMLAVIDELMQALNFNSETVPQKSSLEEPDFYKTKIKLCILLHAFRIRAVTIDRVMSYLNASGGGGSGGGDKTHTCPPCPAPEDEGGPSVFLFPPKPKDTLMISRTPEVTCVVVDVSHEDPEVKFNWYVDGVEVHNAKTKPREEQYNSTYRVVSVLTVLHQDWLNGKEYKCKVSNKALPAPIEKTISKAKGQPREPQVYVYPPSREEMTKNQVSLTCLVKGFYPSDIAVEWESNGQPENNYKTTPPVLDEDGSFALVSKLTVDKSRWQQGNVFSCSVMHEALHNHYTQKSLSLSPGK
chain 2: LFTVTVPKELYIIEHGSNVTLECNFDTGSHVNLGAITAVLQKVENDTSPHRERATLLEEQLPLGKASFHIPQVQVRDEGQYQCIIIYGVAWDYKYLTLKVKASYRKINTHILKVPETDEVELTCQATGYPLAEVSWPNVSVPANTSHSRTPEGLYQVTSVLRLKPPPGRNFSCVFWNTHVRELTLASIDLQSQMEPRTHPTGGGGSGGGDKTHTCPPCPAPEKKGGPSVFLFPPKPKDTLMISRTPEVTCVVVDVSHEDPEVKFNWYVDGVEVHNAKTKPREEQYNSTYRVVSVLTVLHQDWLNGKEYKCKVSNKALPAPIEKTISKAKGQPREPQVYVLPPSREEMTKNQVSLLCLVKGFYPSDIAVEWESNGQPENRYMTWPPVLDSDGSFFLYSKLTVDKSRWQQGNVFSCSVMHEALHNHYTQKSLSLSPGK
notes: also called IL-12(E59A/F60A)/PD-L2(S58V)-Fc
Kd (mouse PD-1 [9]): 230 nM
Kd (human PD-1 [2]): ~100 nM
Kd (mouse PD-1 [3]): ~100 nM

— patent US20230167164A1 (IMMUNOWAKE, published 2023)
